Reference: publication PMC9352680, “A comprehensive thermodynamic model for RNA binding by the Saccharomyces cerevisiae Pumilio protein PUF4”

T1: PUF4 RNA-binding domain (Saccharomyces cerevisiae, UniProt P25339 537-888)
T1 sequence: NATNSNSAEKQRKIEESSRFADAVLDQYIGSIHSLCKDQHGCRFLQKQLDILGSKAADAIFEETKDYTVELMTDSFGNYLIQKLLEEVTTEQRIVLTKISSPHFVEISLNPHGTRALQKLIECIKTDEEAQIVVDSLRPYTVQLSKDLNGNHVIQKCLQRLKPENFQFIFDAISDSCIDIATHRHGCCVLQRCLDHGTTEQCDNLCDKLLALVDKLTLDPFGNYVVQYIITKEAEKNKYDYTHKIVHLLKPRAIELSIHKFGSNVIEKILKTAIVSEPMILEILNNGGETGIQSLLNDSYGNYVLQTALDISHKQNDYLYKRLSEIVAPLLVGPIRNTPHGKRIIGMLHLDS


Target: T1, PUF4 RNA-binding domain
Assay: Mg; RNA-MaP; 20 mM Na-HEPES pH 7.4, 30 mM KOAc, 0.75 mM MgCl2, 0.1% Tween-20, 5% glycerol, 0.1 mg/mL BSA, 2 mM DTT; 25 C; 0.0125-409.6 nM protein
Conditions: tags: N-His6-TEV cleaved; C-SNAP kept, Cy3B-labelled; label: tethered on chip by stalled RNA polymerase

Binder | Kd [nM]
Id_ii_S2_P4E.2_K4.1_C4.2_[C-2A]_[T-1C]_H4.1_A4.1_F4.1_T4.2_[G10T]_[T11C] (ssRNA) RNA: UUUGAUUAAUAUGAUAUCGUUCUUUCUACUGUAUAUUAUCUUCUUUCUCGAUAUCAUAUUAAUCUUU | 0.33
Id_ii_S2_P4E.2_K4.1_C4.2_[C-2A]_[T-1C]_H4.1_A4.1_F4.1_T4.2_[G10C] (ssRNA) RNA: UUUGAUUAAUAUGAUAUCGUUCUUUCUACUGUAUAUUACUUUCUUUCUCGAUAUCAUAUUAAUCUUU | 1.25
Id_ii_S2_P4E.2_K4.1_C4.2_[C-2T]_[T-1G]_H4.1_A4.1_F4.1_T4.2_[G10A] (ssRNA) RNA: UUUGAUUAAUAUGAUAUCGUUCUUUCUUGUGUAUAUUAAUUUCUUUCUCGAUAUCAUAUUAAUCUUU | 0.4
Id_ii_S2_P4E.2_K4.1_C4.2_[C-2T]_[T-1A]_H4.1_A4.1_F4.1_T4.2_[G10T]_[T11C] (ssRNA) RNA: UUUGAUUAAUAUGAUAUCGUUCUUUCUUAUGUAUAUUAUCUUCUUUCUCGAUAUCAUAUUAAUCUUU | 0.618
Id_ii_S2_P4E.2_K4.1_C4.2_[C-2T]_H4.1_A4.1_F4.1_T4.2_[G10T]_[T11G] (ssRNA) RNA: UUUGAUUAAUAUGAUAUCGUUCUUUCUUUUGUAUAUUAUGUUCUUUCUCGAUAUCAUAUUAAUCUUU | 0.421
Id_ii_S2_P4E.2_K4.1_C4.2_[C-2T]_[T-1C]_H4.1_A4.1_F4.1_T4.2_[G10C] (ssRNA) RNA: UUUGAUUAAUAUGAUAUCGUUCUUUCUUCUGUAUAUUACUUUCUUUCUCGAUAUCAUAUUAAUCUUU | 0.602
Id_ii_S2_P4E.2_K4.1_C4.2_[C-2G]_H4.1_A4.1_F4.1_T4.2_[G10A]_[T11A] (ssRNA) RNA: UUUGAUUAAUAUGAUAUCGUUCUUUCUGUUGUAUAUUAAAUUCUUUCUCGAUAUCAUAUUAAUCUUU | 0.659
Id_ii_S2_P4E.2_K4.1_C4.2_[C-2A]_[T-1C]_H4.1_A4.1_F4.1_T4.2_[G10T]_[T11G] (ssRNA) RNA: UUUGAUUAAUAUGAUAUCGUUCUUUCUACUGUAUAUUAUGUUCUUUCUCGAUAUCAUAUUAAUCUUU | 1.95
Id_ii_S2_P4E.2_K4.1_C4.2_[C-2T]_[T-1C]_H4.1_A4.1_F4.1_T4.2_[G10T]_[T11C] (ssRNA) RNA: UUUGAUUAAUAUGAUAUCGUUCUUUCUUCUGUAUAUUAUCUUCUUUCUCGAUAUCAUAUUAAUCUUU | 0.305
Id_ii_S2_P4E.2_K4.1_C4.2_[C-2T]_[T-1C]_H4.1_A4.1_F4.1_T4.2_[G10A]_[T11A] (ssRNA) RNA: UUUGAUUAAUAUGAUAUCGUUCUUUCUUCUGUAUAUUAAAUUCUUUCUCGAUAUCAUAUUAAUCUUU | 0.481
Id_ii_S2_P4E.2_K4.1_C4.2_[C-2T]_[T-1G]_H4.1_A4.1_F4.1_T4.2_[G10A]_[T11A] (ssRNA) RNA: UUUGAUUAAUAUGAUAUCGUUCUUUCUUGUGUAUAUUAAAUUCUUUCUCGAUAUCAUAUUAAUCUUU | 0.532
Id_ii_S2_P4E.2_K4.1_C4.2_[C-2T]_[T-1A]_H4.1_A4.1_F4.1_T4.2_[T11C] (ssRNA) RNA: UUUGAUUAAUAUGAUAUCGUUCUUUCUUAUGUAUAUUAGCUUCUUUCUCGAUAUCAUAUUAAUCUUU | 0.523
Id_ii_S2_P4E.2_K4.1_C4.2_[C-2T]_[T-1G]_H4.1_A4.1_F4.1_T4.2_[G10T] (ssRNA) RNA: UUUGAUUAAUAUGAUAUCGUUCUUUCUUGUGUAUAUUAUUUUCUUUCUCGAUAUCAUAUUAAUCUUU | 0.23
Id_ii_S2_P4E.2_K4.1_C4.2_[C-2A]_[T-1C]_H4.1_A4.1_F4.1_T4.2_[G10A]_[T11C] (ssRNA) RNA: UUUGAUUAAUAUGAUAUCGUUCUUUCUACUGUAUAUUAACUUCUUUCUCGAUAUCAUAUUAAUCUUU | 0.678
Id_ii_S2_P4E.2_K4.1_C4.2_[C-2T]_[T-1A]_H4.1_A4.1_F4.1_T4.2_[G10A] (ssRNA) RNA: UUUGAUUAAUAUGAUAUCGUUCUUUCUUAUGUAUAUUAAUUUCUUUCUCGAUAUCAUAUUAAUCUUU | 0.878
Id_ii_S2_P4E.2_K4.1_C4.2_[C-2T]_[T-1C]_H4.1_A4.1_F4.1_T4.2_[G10C]_[T11C] (ssRNA) RNA: UUUGAUUAAUAUGAUAUCGUUCUUUCUUCUGUAUAUUACCUUCUUUCUCGAUAUCAUAUUAAUCUUU | 0.565
Id_ii_S2_P4E.2_K4.1_C4.2_[C-2T]_H4.1_A4.1_F4.1_T4.2_[G10A] (ssRNA) RNA: UUUGAUUAAUAUGAUAUCGUUCUUUCUUUUGUAUAUUAAUUUCUUUCUCGAUAUCAUAUUAAUCUUU | 0.408
Id_ii_S2_P4E.2_K4.1_C4.2_[C-2T]_[T-1A]_H4.1_A4.1_F4.1_T4.2_[G10T] (ssRNA) RNA: UUUGAUUAAUAUGAUAUCGUUCUUUCUUAUGUAUAUUAUUUUCUUUCUCGAUAUCAUAUUAAUCUUU | 0.502
Id_ii_S2_P4E.2_K4.1_C4.2_[C-2A]_[T-1G]_H4.1_A4.1_F4.1_T4.2_[G10A]_[T11A] (ssRNA) RNA: UUUGAUUAAUAUGAUAUCGUUCUUUCUAGUGUAUAUUAAAUUCUUUCUCGAUAUCAUAUUAAUCUUU | 1.64
Id_ii_S2_P4E.2_K4.1_C4.2_[C-2T]_H4.1_A4.1_F4.1_T4.2 (ssRNA) RNA: UUUGAUUAAUAUGAUAUCGUUCUUUCUUUUGUAUAUUAGUUUCUUUCUCGAUAUCAUAUUAAUCUUU | 0.456
Id_ii_S2_P4E.2_K4.1_C4.2_[C-2T]_[T-1A]_H4.1_A4.1_F4.1_T4.2_[G10A]_[T11A] (ssRNA) RNA: UUUGAUUAAUAUGAUAUCGUUCUUUCUUAUGUAUAUUAAAUUCUUUCUCGAUAUCAUAUUAAUCUUU | 1.03
Id_ii_S2_P4E.2_K4.1_C4.2_[C-2A]_[T-1C]_H4.1_A4.1_F4.1_T4.2_[G10T] (ssRNA) RNA: UUUGAUUAAUAUGAUAUCGUUCUUUCUACUGUAUAUUAUUUUCUUUCUCGAUAUCAUAUUAAUCUUU | 0.296
Id_ii_S2_P4E.2_K4.1_C4.2_[C-2A]_[T-1G]_H4.1_A4.1_F4.1_T4.2_[G10T]_[T11G] (ssRNA) RNA: UUUGAUUAAUAUGAUAUCGUUCUUUCUAGUGUAUAUUAUGUUCUUUCUCGAUAUCAUAUUAAUCUUU | 1.63
